Measured values as given in article PMC12731782.

Target: N-terminally GFP-tagged mouse ClC-3c (mouse)
Assay: FRET or BRET; FLIM-FRET (phasor analysis of the donor lifetime) in living SH-SY5Y cells transfected with the IRES construct; GFP on ClC-3 as donor, mCherry on ClC-4 as acceptor; regions of interest at the plasma membrane or intracellular areas of intermediate fluorescence; tauD from cells expressing only the donor

Chain of N-terminally GFP-tagged mouse ClC-3c (mouse) (P51791 whole entry): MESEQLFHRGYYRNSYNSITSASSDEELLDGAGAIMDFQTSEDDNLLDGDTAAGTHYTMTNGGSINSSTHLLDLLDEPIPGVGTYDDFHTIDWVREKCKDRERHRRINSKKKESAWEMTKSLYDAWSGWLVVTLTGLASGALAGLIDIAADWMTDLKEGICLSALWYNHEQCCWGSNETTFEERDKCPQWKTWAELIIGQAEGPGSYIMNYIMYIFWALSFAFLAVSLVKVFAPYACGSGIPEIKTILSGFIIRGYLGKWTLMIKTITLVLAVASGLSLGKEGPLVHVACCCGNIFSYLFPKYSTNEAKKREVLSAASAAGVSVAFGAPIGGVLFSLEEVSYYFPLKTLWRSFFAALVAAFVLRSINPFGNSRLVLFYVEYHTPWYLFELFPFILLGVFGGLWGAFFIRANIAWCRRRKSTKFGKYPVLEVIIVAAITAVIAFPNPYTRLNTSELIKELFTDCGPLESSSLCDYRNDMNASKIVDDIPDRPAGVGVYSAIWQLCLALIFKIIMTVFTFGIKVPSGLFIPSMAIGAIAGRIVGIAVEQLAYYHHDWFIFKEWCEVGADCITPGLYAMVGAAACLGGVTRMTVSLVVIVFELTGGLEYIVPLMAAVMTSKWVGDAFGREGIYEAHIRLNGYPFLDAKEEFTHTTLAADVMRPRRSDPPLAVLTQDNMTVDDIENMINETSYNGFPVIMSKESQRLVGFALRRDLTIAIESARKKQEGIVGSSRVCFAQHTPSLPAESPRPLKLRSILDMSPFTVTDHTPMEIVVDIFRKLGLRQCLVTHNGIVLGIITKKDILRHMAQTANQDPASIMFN

- donor fluorescence lifetime in the presence of the acceptor (τDA; unquenched donor τD = 2.22ns): 1.89 ns
Substance: N-terminally mCherry-tagged human ClC-4 (from UniProt P51793 1-760) (natural protein)
